# Biological target: the molecule itself
# Experiment: SDS-PAGE and Western blotting of aged gels collected by centrifugation
protein,measurement,value
"full-length human recombinant prion protein (residues 23-231) (natural protein, also called rPrP; hu-PrP; source: E. coli DH5α, purified) not shown",binding result,binds

# Source: article PMC8289115, “Liquid–liquid phase separation of full-length prion protein initiates conformational conversion in vitro” (The Journal of Biological Chemistry, 2021)
